Measurements as given in patent US20260216242A1, “ALPP-SPECIFIC VARIANT ANTIGEN BINDING MOLECULES” (ALMAC DISCOVERY LIMITED, priority 2022, published 2026).

T1: hALPI (Homo sapiens, UniProt P09923)
T1 sequence (P09923 with tags, fused parts or gaps): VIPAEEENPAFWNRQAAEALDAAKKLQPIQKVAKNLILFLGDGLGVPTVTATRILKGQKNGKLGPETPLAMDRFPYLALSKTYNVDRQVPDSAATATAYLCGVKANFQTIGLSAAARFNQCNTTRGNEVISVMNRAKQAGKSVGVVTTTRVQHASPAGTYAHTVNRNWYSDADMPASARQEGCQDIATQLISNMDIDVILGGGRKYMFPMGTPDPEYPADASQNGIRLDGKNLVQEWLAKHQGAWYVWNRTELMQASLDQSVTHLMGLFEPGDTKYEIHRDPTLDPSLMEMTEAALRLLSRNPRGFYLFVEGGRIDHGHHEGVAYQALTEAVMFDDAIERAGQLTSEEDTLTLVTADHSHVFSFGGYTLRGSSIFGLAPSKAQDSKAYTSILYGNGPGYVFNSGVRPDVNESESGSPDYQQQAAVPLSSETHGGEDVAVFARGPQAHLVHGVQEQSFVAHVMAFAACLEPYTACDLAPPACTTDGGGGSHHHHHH

T2: ALPI His homodimer (Homo sapiens, UniProt P09923)
T2 sequence (P09923 with tags, fused parts or gaps): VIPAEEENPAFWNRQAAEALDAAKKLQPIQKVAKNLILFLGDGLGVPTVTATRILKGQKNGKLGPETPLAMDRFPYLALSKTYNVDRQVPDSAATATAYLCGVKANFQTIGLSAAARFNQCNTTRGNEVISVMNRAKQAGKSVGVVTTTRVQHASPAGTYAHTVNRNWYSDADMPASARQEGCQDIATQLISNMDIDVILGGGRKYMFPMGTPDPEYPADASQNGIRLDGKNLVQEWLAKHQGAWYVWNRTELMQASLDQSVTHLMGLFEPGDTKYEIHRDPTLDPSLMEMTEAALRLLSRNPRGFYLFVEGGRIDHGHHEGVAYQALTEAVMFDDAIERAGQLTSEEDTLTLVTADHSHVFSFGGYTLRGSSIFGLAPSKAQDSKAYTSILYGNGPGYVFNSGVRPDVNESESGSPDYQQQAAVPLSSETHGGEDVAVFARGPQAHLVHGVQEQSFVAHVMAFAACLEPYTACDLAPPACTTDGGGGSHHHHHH


target: T1, hALPI; assay: BLI binding to ALPI His; conditions: VHH-hFc fusions, very low response values
Experimental: Binding kinetics were determined using the Biolayer Interferometry (BLI) Octet K2 system (Sartorius). Human ALPP, ALPPL2, ALPL (each fused with a cysteine stabilised leucine zipper) and ALPI, (SEQ ID NO: 265, SEQ ID NO: 266 and SEQ ID NO: 267 and SEQ ID NO: 264 respectively) were immobilised in sodium acetate pH5 buffer to AR2G sensors using amine coupling. All assays were conducted in PBS with a plate temperature of 25° C. Ka (M^−1s^−1), Kd (s^−1) and KD (nM) values were determined using Octet Data Analysis High Throughput software (ForteBio) for Biolayer Interferometry.
Binding kinetics were determined using the Biolayer Interferometry (BLI) Octet K2 or R4 system (Sartorius). Human ALPP, ALPPL2 and ALPL all fused with a disulphide stabilised leucine zipper (SEQ ID NO: 265, SEQ ID NO: 266, and SEQ ID NO: 267) and ALPI His (SEQ ID NO: 264) were used in BLI experiments. […] Ka (M^−1s^−1), Kd (s^−1) and KD (nM) values were determined using Octet Data Analysis High Throughput software (Sartorius) for Biolayer Interferometry.
Binding kinetics were determined using the Biolayer Interferometry (BLI) Octet K2 or R4 system (Sartorius). […] Ka (M^−1s^−1), Kd (s^−1) and KD (nM) values were determined using Octet Data Analysis High Throughput software (Sartorius) for Biolayer Interferometry.

Molecule | Kd
F08: ALPP/ALPPL2 targeting VHH domain, SEQ ID NO: 35 (protein) VHH: QVQLVESGGGSVQAGGSLRLSCAASGPSLSNYAMGWFRQAPGKEREFVAGISWGGGRTSYTDSVKGRFTISRDNAKNTVYLQMNNLKPEDTGVYYCAGRYGRGRNVEYEYDYWGQGTQVTVSS | 10.8 nM
B01: ALPP/ALPPL2 targeting VHH domain, SEQ ID NO: 20 (protein) VHH: QVQLVESGGGLVQAGGSLRLSCEVTRSPMPIDTMAWYRQAPGRQRELVAIISRSGSTNYADSVKGRFTISRNDTKSTMYKSTMYLKMNTLELEDTGVYYCNAVGLWNGAEYWGQGTQVTVSS | 148 nM

target: T2, ALPI His homodimer; assay: ELISA binding to ALPI; conditions: 500 ng purified VHH
Experimental: ELISA was used to test the binding and specificity of the VHHs. ALPP CysHis (SEQ ID NO: 263), ALPI His homodimer (SEQ ID NO: 264) or BSA (Thermo Fisher) were coated onto plates and 500 ng of each purified VHH added. Anti-Llama—HRP antibody was used for detection.

Molecule | ELISA hALPI
A06: ALPP/ALPPL2 targeting VHH domain, SEQ ID NO: 17; tested C-terminally His-tagged (protein, C-terminal His tag, tested C-terminally His-tagged) VHH: QVHLVESGGGLVQAGGSLRLSCAASGRTFLSMGWFRQAPGKEREFVAAISWTGGSTGYADSVKGRFTISRESDKETMYLQMNSLKPEDTAVYYCAARGDVYYGGDDATRYKYWGQGTQVTVSS | No Binding
C07: ALPP/ALPPL2 targeting VHH domain, SEQ ID NO: 25 (protein) VHH: QVQLVESGGGLVQAGESLRLACAASGTIFSGNAVGWYRQAPEKQREWVSSITDYGDTDYAEAVKGRFTISRDNAKNTVYLQMNSLKPEDTAVYYCYVYQRGESEEYWGQGTQVTVSS | No Binding
D10: ALPP targeting VHH domain, SEQ ID NO: 28 (protein) VHH: QVQLVESGGGLVQPGGSLRLSCAASGSIFSVNTMGWYRQAPGKQRDLVAVATSGGTIHYADSVKGRFTISRDNAKNTVYLQMNSLKPEDTAVYYCNLVVPYGMIAGDHDYWGQGTKVTVSS | No Binding
E10: ALPP/ALPPL2 targeting VHH domain, SEQ ID NO: 31 (protein) VHH: QVQLVESGGGLVQAGGSLRLSCAVSGRALSDYNIGWFRQAPGKEREFVARKTWDGSSTRYDDSVKGRFTVSIEDAKNTAYLQMSSLKTEDTAVYYCAAGRYSRARGWEYDYWGQGTQVTVSS | No Binding
F05: ALPP/ALPPL2 targeting VHH domain, SEQ ID NO: 34 (protein) VHH: QVQLVESGGGLVQAGGSLRLSCAASGRAFGDYNIGWFRQAPGKEREFVARRTWDGSSTRYDDSVKGRFTVSIDNAKNTAYLQMNSLKTEDTAVYYCAAGRYSRVRGWEYDYWGQGTQVTVSS | No Binding
A05: ALPP/ALPPL2 targeting VHH domain, SEQ ID NO: 16; tested C-terminally His-tagged (protein, C-terminal His tag, tested C-terminally His-tagged) VHH: QVQLVESGGGLVQAGASLTLSCAASGFTFNTRSIVWFRQAPGKEREAVSCISKVAGSTYYGDSVQGRFSSSTDNAKNTVSLQMNSLKPEDTAVYTCAASFAPNCYGWSVAANMEYWGEGTMVTVSS | No Binding
E06: ALPP/ALPPL2 targeting VHH domain, SEQ ID NO: 30 (protein) VHH: QVHLVESGGGLVQAGGSLRLSCAASRRSFSEYAMGWFRQAPGKEREFVAAIGWSGVIEYADSVKGRFTISRDNAKDTVYLQMNSLKPEDTAVYYCAAGLGIRVVSQTPAYWGQGTQVTVSS | No Binding
F08: ALPP/ALPPL2 targeting VHH domain, SEQ ID NO: 35 (protein) VHH: QVQLVESGGGSVQAGGSLRLSCAASGPSLSNYAMGWFRQAPGKEREFVAGISWGGGRTSYTDSVKGRFTISRDNAKNTVYLQMNNLKPEDTGVYYCAGRYGRGRNVEYEYDYWGQGTQVTVSS | No Binding
B01: ALPP/ALPPL2 targeting VHH domain, SEQ ID NO: 20 (protein) VHH: QVQLVESGGGLVQAGGSLRLSCEVTRSPMPIDTMAWYRQAPGRQRELVAIISRSGSTNYADSVKGRFTISRNDTKSTMYKSTMYLKMNTLELEDTGVYYCNAVGLWNGAEYWGQGTQVTVSS | No Binding
D04: ALPP/ALPPL2 targeting VHH domain, SEQ ID NO: 26 (protein) VHH: QVQLVESGGGLVQPGGSLRLSCAASESTFSINVMGWYRQAPGKQRELVATITSGDITNYADSVKGRFTISRDNAENTVYLRTNSLKPEDTAVYYCNARGEYHSGNEYDYWGQGTQVTVSS | No Binding
